Source: PMC12678531, “Cytosolic TOP3α facilitates mitochondrial DNA sensing by cGAS”

Molecular target: cGAS (Homo sapiens, UniProt Q8N884 1-522)
Test: EMSA; 300 pmol protein, 50 pmol DNA in 10 uL; EMSA: Beyotime GS005 binding buffer, 37 C, 15 min, 10 uL, 6% PAGE in TBE at 4 C; extract pull-down: 50 mM Tris-HCl pH 7.5, 150 mM NaCl, 0.025% digitonin
Details: protein: recombinant; tags: C-terminal LE-6xHis; chain copies: 2; label: none for EMSA (GelRed stain); blunt

Sequence of cGAS (Q8N884 whole entry): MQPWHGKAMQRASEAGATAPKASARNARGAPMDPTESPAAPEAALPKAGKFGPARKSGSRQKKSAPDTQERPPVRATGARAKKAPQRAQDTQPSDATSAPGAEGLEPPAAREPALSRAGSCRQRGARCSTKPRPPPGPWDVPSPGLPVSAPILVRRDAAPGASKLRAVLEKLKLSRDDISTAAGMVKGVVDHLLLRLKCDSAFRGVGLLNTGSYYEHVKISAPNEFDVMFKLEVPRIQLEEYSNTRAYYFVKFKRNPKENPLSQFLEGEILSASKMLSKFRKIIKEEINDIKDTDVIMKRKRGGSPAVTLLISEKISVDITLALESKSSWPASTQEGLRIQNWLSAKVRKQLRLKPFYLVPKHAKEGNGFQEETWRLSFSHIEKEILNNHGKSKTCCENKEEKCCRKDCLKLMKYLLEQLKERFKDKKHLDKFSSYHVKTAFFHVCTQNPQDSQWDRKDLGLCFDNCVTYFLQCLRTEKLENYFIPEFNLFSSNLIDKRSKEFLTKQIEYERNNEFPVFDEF

B1: DNA2 (30 bp) (dsDNA)
DNA 1: CCGAAACCAGACGAGCTACCTAAGAACAGC
DNA 2: GCTGTTCTTAGGTAGCTCGTCTGGTTTCGG
B1: binds.
